This note sets out measurements from patent publication US8637739B2, “Anti-nematode peptides and methods of use thereof” (Pioneer Hi Bred International Inc, priority 2011, dated 2014).

This experiment concerns C. elegans. The experiment is described as follows: C. elegans feeding assay. It counts as in vivo, Caenorhabditis elegans. The protocol:
The 75G5 strain was obtained from a biodiverse collection of bacterial strains. The strain was grown in Tryptic soy medium overnight at 20° C., with shaking at 225 rpm. 5 to 30 μL of the liquid culture was added into assay wells in 96-well plates. Each assay well contained 120 μL of liquid with ˜50 L1 staged C. elegans, 30 μg/mL tetracycline, 30 μg/mL chloramphenicol, and S-medium. E. coli strain OP50 was used as a negative control. Forty-eight hours later, the assay plates were scored under a microscope by checking the worm's growth and development.
To further characterize the nematicidal activity, the 75G5 strain was cultured in 50 ml Tryptic soy medium at 20° C. for 18 h, with 225 rpm shaking. The cell pellet was collected after centrifugation at 700 rpm and then stored at −80 C. Total protein was extracted from the cell pellet using the B-PER II Bacterial Protein Extraction Reagent from Thermo. The lysate was centrifuged twice at 10,000 rpm and the final supernatant was collected as the total protein sample.
The expression constructs were then transformed into E. coli TOP10 strain with carbenicillin selection. For protein expression, an E. coli overnight culture was diluted by 50 fold and grown at 37° C. for 2.5 hours (to OD600 ˜0.5). Protein expression was induced by adding 0.8 mM IPTG and the culture was grown for another 5 hours at 30° C. […]

B1: RX025: small, active 25 kDa Sphingobacterium spiritivorum protein; putative twin arginine translocation pathway signal protein (protein, listed as Sphingobacterium spiritivorum)
chain: MHRREALQRVALLMGGTVIGANLFLEGCSRSASKDTAKLFEKDSVNFLGDLAEAILPKTSTPGAKEAGVGEFIPVMIRDCYADTEQKVFLDGINTVDERAKKEFGKKFQELSKEDQTKFVNILDKEASEYNAKQAEATKAQREKDALKQNEMYRVPKSDPPHWFTMFKQLTLTGFFTSELGATKALRYVKIPGKFDGNYPYKKGEHAWA
With B1, the “nematicidal activity (worm development)” value (E. coli TOP10 strains expressing the RX025 gene from pMAL (MBP fusion) and pQE80L, IPTG induced) is “inhibited worm development, arresting worms at the L1 stage”. For the same molecule, under “proteins in pooled Mono Q/Mono S fractions of strain 75G5 membrane associated proteins”, the “nematicidal activity of purified protein bands” value is recorded as “active”.
